Test results taken from PMC4338332 (RNA, 2015).

Target: T1, Non-POU domain-containing octamer-binding protein (NONO), endogenous, from HeLa nuclear extract (human (endogenous in HeLa), UniProt Q15233 1-471)
T1 sequence: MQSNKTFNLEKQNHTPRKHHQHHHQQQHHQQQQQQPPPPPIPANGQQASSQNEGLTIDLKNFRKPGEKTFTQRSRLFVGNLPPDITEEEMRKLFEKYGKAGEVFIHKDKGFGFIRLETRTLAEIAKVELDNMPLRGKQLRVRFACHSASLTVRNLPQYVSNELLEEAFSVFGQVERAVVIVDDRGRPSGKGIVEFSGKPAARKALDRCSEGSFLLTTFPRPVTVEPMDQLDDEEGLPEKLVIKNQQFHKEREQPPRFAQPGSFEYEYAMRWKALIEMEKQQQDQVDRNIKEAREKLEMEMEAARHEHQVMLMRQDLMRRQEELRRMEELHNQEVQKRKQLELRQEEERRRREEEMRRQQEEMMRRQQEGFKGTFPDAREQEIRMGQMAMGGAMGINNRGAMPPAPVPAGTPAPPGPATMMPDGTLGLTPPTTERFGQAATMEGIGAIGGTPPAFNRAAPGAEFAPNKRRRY
Test: affinity purification with mass spectrometry

B1: Splicing factor, proline- and glutamine-rich (SFPQ), endogenous, from HeLa nuclear extract (natural protein)
chain: MSRDRFRSRGGGGGGFHRRGGGGGRGGLHDFRSPPPGMGLNQNRGPMGPGPGQSGPKPPIPPPPPHQQQQQPPPQQPPPQQPPPHQPPPHPQPHQQQQPPPPPQDSSKPVVAQGPGPAPGVGSAPPASSSAPPATPPTSGAPPGSGPGPTPTPPPAVTSAPPGAPPPTPPSSGVPTTPPQAGGPPPPPAAVPGPGPGPKQGPGPGGPKGGKMPGGPKPGGGPGLSTPGGHPKPPHRGGGEPRGGRQHHPPYHQQHHQGPPPGGPGGRSEEKISDSEGFKANLSLLRRPGEKTYTQRCRLFVGNLPADITEDEFKRLFAKYGEPGEVFINKGKGFGFIKLESRALAEIAKAELDDTPMRGRQLRVRFATHAAALSVRNLSPYVSNELLEEAFSQFGPIERAVVIVDDRGRSTGKGIVEFASKPAARKAFERCSEGVFLLTTTPRPVIVEPLEQLDDEDGLPEKLAQKNPMYQKERETPPRFAQHGTFEYEYSQRWKSLDEMEKQQREQVEKNMKDAKDKLESEMEDAYHEHQANLLRQDLMRRQEELRRMEELHNQEMQKRKEMQLRQEEERRRREEEMMIRQREMEEQMRRQREESYSRMGYMDPRERDMRMGGGGAMNMGDPYGSGGQKFPPLGGGGGIGYEANPGVPPATMSGSMMGSDMRTERFGQGGAGPVGGQGPRGMGPGTPAGYGRGREEYEGPNKKPRF
- stoichiometry N: 1
